Laboratory results reported in paper PMC12013499.
pKd: −log10 of the molar value.

Tests used:
Test in all cases: EMSA
Settings in all cases: EMSA: 0.5 pmol 32P-tRNA, 0-4 uM enzyme, 20 C, 10 min, 18.5% glycerol added, 5% native PAGE; buffer and pH not given (as in cited refs); n = 3
[1] = test system: T1, HsaCCA-AsuC40 (Homo sapiens / Ascaris suum chimera)
T1 sequence: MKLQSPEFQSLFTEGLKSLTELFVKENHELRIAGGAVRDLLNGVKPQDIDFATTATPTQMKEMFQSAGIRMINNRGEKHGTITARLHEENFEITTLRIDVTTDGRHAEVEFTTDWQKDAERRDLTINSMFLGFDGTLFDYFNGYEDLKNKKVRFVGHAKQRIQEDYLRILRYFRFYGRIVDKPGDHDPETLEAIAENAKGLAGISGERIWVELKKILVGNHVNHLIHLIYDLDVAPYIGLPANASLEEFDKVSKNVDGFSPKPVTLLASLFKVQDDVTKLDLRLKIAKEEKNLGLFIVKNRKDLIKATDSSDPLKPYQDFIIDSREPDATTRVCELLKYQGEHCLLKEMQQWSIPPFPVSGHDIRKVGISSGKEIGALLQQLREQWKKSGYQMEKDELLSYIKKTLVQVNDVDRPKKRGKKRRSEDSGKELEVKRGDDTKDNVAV

[2] = test system: T2, AsuCCA-Hsaβ (Ascaris suum / Homo sapiens chimera)
T2 sequence: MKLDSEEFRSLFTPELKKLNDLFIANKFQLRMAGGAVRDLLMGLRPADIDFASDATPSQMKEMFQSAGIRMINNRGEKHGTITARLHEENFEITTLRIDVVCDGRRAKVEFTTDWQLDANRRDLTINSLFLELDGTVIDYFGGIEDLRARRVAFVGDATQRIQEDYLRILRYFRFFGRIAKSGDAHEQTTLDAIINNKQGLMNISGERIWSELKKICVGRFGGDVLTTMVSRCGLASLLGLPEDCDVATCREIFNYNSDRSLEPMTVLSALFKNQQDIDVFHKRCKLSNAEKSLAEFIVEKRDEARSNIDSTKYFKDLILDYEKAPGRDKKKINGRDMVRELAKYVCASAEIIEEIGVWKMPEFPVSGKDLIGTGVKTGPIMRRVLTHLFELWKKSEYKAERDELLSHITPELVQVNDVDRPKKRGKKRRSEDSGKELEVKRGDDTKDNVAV

[3] = test system: T3, RcuCCA (Romanomermis culicivorax)
T3 sequence: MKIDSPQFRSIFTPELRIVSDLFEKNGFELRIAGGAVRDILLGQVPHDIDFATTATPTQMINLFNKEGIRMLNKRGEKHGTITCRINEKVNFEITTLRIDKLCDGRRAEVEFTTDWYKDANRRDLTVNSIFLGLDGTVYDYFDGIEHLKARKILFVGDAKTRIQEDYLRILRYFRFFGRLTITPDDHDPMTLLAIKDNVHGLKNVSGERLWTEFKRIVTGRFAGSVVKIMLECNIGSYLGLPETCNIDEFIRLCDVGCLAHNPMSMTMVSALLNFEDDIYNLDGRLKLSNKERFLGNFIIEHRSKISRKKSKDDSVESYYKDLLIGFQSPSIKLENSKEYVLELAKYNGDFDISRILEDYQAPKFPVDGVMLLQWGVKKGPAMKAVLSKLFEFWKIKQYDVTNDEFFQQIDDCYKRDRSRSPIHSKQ

[4] = test system: T4, AsuCCA (Ascaris suum)
T4 sequence: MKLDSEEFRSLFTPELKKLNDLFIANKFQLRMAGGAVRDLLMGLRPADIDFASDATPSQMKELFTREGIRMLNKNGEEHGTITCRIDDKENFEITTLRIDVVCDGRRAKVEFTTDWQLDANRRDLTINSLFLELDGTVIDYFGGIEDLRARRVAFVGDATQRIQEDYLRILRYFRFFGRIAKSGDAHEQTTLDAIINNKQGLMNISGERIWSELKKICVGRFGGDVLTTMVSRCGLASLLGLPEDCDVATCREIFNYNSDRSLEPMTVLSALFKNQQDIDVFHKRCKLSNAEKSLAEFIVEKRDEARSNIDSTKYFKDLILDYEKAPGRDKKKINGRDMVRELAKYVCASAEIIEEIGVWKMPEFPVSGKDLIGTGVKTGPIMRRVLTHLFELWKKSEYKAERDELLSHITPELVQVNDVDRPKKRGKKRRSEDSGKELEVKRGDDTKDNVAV

[5] = test system: T5, AsuCCA ΔC40 delC-terminal 40 residues (Ascaris suum)
T5 sequence: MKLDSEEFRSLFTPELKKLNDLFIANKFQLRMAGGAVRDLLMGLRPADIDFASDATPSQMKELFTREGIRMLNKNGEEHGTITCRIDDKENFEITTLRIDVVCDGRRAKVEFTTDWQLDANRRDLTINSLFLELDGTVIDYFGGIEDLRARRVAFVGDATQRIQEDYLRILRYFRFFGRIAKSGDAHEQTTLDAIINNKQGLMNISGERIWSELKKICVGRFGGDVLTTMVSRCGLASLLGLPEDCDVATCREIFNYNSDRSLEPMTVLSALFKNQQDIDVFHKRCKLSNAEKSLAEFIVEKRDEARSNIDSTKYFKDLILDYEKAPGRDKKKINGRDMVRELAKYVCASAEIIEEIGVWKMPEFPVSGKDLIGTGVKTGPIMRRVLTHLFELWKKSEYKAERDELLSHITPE

| Substance | pKd [1] | pKd [2] | pKd [3] | pKd [4] | pKd [5] |
| --- | --- | --- | --- | --- | --- |
| Rcu mt-tRNAIle (armless) | 6.22 | 6.52 | 5.85 | 5.96 | – |
| Sce tRNAPhe (canonical) | 6.15 | 6.52 | 5.80 | 6.30 | 5.77 |
